What was measured:
[1] = target: RSV F protein of subtype A (strain A2) on recombinant mKate-RSV (respiratory syncytial virus subtype A (strain A2)) (UniProt P03420); assay: cell-based or functional assay
[2] = target: human metapneumovirus (HMPV) F protein on GFP-expressing hMPV recombinant virus (NL/1/00, A1 sublineage) (human metapneumovirus); assay: cell-based or functional assay

Question: How did the RSV-A2 IC50 [1] turn out when MPE8 (antibody) was run?
Answer: 0.04 µg/mL

Question: And the HMPV-A1 IC50 [2]?
Answer: 0.07 µg/mL

— US20200223906A1
